# Values joined by “and” are separate entries in the source; they are usually repeats but may differ in a detail not shown here. Equal values may be shown once.
# Tests used:
# [1] = biological target: envelope of standard panel pseudotyped virus SVPB5 (HIV-1 subtype B); assay: cell-based or functional assay
# [2] = biological target: envelope of standard panel pseudotyped virus SVPB6 (HIV-1 subtype B); assay: cell-based or functional assay
# [3] = biological target: envelope of standard panel pseudotyped virus SVPB8 (HIV-1 subtype B); assay: cell-based or functional assay
# [4] = biological target: envelope of standard panel pseudotyped virus SVPB11 (HIV-1 subtype B); assay: cell-based or functional assay
# [5] = biological target: envelope of standard panel pseudotyped virus SVPB12 (HIV-1 subtype B); assay: cell-based or functional assay
# [6] = biological target: envelope of standard panel pseudotyped virus SVPB13 (HIV-1 subtype B); assay: cell-based or functional assay
# [7] = biological target: envelope of standard panel pseudotyped virus SVPB14 (HIV-1 subtype B); assay: cell-based or functional assay
# [8] = biological target: envelope of standard panel pseudotyped virus SVPB15 (HIV-1 subtype B); assay: cell-based or functional assay
# [9] = biological target: envelope of standard panel pseudotyped virus SVPB16 (HIV-1 subtype B); assay: cell-based or functional assay
# [10] = biological target: envelope of standard panel pseudotyped virus SVPB17 (HIV-1 subtype B); assay: cell-based or functional assay
# [11] = biological target: envelope of standard panel pseudotyped virus SVPB18 (HIV-1 subtype B); assay: cell-based or functional assay
# [12] = biological target: T1, monomeric gp120 (gp120-SF2; Austral Biologicals) (HIV-1 strain SF2, UniProt P03378 32-509); assay: gp120-capture ELISA, B cell culture supernatant
# T1 construct: domain: gp120; also called gp120 monomer
# [13] = biological target: envelope of HIV-1 strain IIIB (HIV-1 strain IIIB); assay: cell-based or functional assay; parameters: unit not given beside the values
# [14] = biological target: envelope of HIV-1 strain 89.6 (HIV-1 strain 89.6, UniProt Q73372 32-853); assay: cell-based or functional assay; parameters: unit not given beside the values
# [15] = biological target: envelope of HIV-1 strain SF162 (HIV-1 strain SF162, UniProt P19550 32-847); assay: cell-based or functional assay; parameters: unit not given beside the values
# [16] = biological target: envelope of HIV-1 strain BaL (HIV-1 strain BaL); assay: cell-based or functional assay; parameters: unit not given beside the values
# [17] = biological target: envelope of HIV-1 strain JR-FL (JRFLwt), on virus (HIV-1 strain JR-FL); assay: cell-based or functional assay; parameters: unit not given beside the values
# [18] = biological target: envelope of HIV-1 strain JRFLGPER; assay: cell-based or functional assay; parameters: unit not given beside the values
# [19] = biological target: envelope of HIV-1 strain YU2 (HIV-1 strain YU2, UniProt P35961 32-843); assay: cell-based or functional assay; parameters: unit not given beside the values
# [20] = biological target: envelope of HIV-1 clinically isolated strain MTA; assay: cell-based or functional assay; parameters: unit not given beside the values
# [21] = biological target: envelope of HIV-1 clinically isolated strain MOKW; assay: cell-based or functional assay; parameters: unit not given beside the values
# [22] = biological target: envelope of HIV-1 clinically isolated strain YKI; assay: cell-based or functional assay; parameters: unit not given beside the values
# [23] = biological target: envelope of HIV-1 clinically isolated strain YIS; assay: cell-based or functional assay; parameters: unit not given beside the values
# [24] = biological target: envelope of HIV-1 clinically isolated strain MIS; assay: cell-based or functional assay; parameters: unit not given beside the values
# [25] = biological target: envelope of HIV-1 clinically isolated strain kKGO; assay: cell-based or functional assay; parameters: unit not given beside the values
# [26] = biological target: envelope of HIV-1 clinically isolated strain KMT; assay: cell-based or functional assay; parameters: unit not given beside the values
# [27] = biological target: envelope of HIV-1 clinically isolated strain TR43; assay: cell-based or functional assay; parameters: unit not given beside the values
# [28] = biological target: T2, envelope of HIV-2 strain ROD (HIV-2 strain ROD, UniProt P04577 20-858); assay: cell-based or functional assay; parameters: unit not given beside the values
# T2 sequence: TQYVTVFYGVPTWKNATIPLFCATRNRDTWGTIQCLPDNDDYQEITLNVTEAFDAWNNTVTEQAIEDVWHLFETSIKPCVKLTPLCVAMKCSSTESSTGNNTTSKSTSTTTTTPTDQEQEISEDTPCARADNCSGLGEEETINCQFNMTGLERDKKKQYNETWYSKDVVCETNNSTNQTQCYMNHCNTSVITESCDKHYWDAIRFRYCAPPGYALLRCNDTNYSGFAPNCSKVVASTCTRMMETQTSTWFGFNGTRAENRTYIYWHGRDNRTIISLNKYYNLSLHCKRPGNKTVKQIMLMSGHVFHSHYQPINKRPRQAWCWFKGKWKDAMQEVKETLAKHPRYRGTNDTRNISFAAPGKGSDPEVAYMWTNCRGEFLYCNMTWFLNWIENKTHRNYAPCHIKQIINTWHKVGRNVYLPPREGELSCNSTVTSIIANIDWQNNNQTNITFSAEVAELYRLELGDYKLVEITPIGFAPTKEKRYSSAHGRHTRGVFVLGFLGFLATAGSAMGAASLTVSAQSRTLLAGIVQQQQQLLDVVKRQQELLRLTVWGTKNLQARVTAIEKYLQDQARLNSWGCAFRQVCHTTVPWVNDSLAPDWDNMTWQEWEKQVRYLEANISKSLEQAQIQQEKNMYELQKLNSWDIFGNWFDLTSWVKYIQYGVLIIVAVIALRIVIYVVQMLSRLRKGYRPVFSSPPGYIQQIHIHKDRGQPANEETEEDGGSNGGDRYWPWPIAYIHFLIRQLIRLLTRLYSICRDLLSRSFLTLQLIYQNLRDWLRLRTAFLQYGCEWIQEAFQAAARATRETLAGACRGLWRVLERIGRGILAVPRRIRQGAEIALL
# [29] = biological target: envelope of HIV-2 strain EHO (HIV-2 strain EHO); assay: cell-based or functional assay; parameters: unit not given beside the values
# V3 peptide NNT20 = biological target: T3, V3 peptide NNT20 (HIV-1 strain JR-FL); assay: V3-peptide ELISA, NNT20 coated at 5 µg/ml
# T3 construct: Coated on the plate at 5 µg/ml
# T3 peptide: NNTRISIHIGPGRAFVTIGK
# [30] = biological target: T1, monomeric gp120 (gp120-SF2; Austral …); assay: gp120-capture ELISA with or without 0.5 µg/ml sCD4
Binder,IC50 in TZM-bl cells [1],IC50 in TZM-bl cells [2],IC50 in TZM-bl cells [3],IC50 in TZM-bl cells [4],IC50 in TZM-bl cells [5],IC50 in TZM-bl cells [6],IC50 in TZM-bl cells [7],IC50 in TZM-bl cells [8],IC50 in TZM-bl cells [9],IC50 in TZM-bl cells [10],IC50 in TZM-bl cells [11],binding result [12],"IC50, neutralizing activity (MTT assay) [13]","IC50, neutralizing activity (MTT assay) [14]","IC50, neutralizing activity (MTT assay) [15]","IC50, neutralizing activity (MTT assay) [16]","IC50, neutralizing activity (MTT assay) [17]","IC50, neutralizing activity (MTT assay) [18]","IC50, neutralizing activity (MTT assay) [19]","IC50, neutralizing activity (MTT assay) [20]",other results
"42F9 (antibody, IgG1, V domains shown) VH: EVQLVESGGGVVRPGGSLRLSCAASGFAFGEYGMSWVRQAPGKGLEWVSGINWNGGSTGYADSVQGRFTTSRDNAKNSLYLQMNSLRAEDTALYYCARDENYDILTGNYYYGMDVWGQGTTVTVSS VL: DIQLTQSPSSLSASVGDRVTITCRASQSISNYLNWYQQKPGKAPKLLIYAASSLQSGVPSRFSGSGSGTDFTLTISSLQPEDFATFYCQQSHSIPYTFGQGTKLEIKR",4.5 µg/mL,> 50 µg/mL,> 50 µg/mL,> 50 µg/mL,> 50 µg/mL,> 50 µg/mL,> 50 µg/mL,> 50 µg/mL,21 µg/mL,> 50 µg/mL,> 50 µg/mL,binds,–,–,–,–,–,–,–,–,–
"0.5 γ(1C10) (antibody, IgG1, V domains shown, Human monoclonal from EBV-immortalised B cells of a long-term nonprogressor; also called 0.5γ(IC10); 1C10(0.5 γ)) VH: EVQLVESGGGLIQPGGSLRLSCAASGFTVSSSSMSWVRQAPEKGLEWVSVVYSGGNTYNADSVKGRFSISRDNSKNTVYLQMNSLRADDTAVYYCARDLGGGDRSSDYWGQGTLVTVSS VL: DIQLTQSPSSLSASVGDRVTITCRASESINTYLNWYQQRPGKAPKLLIYAASTLQTGVPSRFSGSGSGTLFTLTISSLQPEDLATYYCQQSFSTLPYTLGRGTKVEIKG",0.23 µg/mL,38 µg/mL,> 150 µg/mL,35 µg/mL,> 50 µg/mL and 82 µg/mL,> 50 µg/mL and 110 µg/mL,10.5 µg/mL,> 150 µg/mL,6.1 µg/mL,4.5 µg/mL,1.1 µg/mL,binds,> 50,0.12,0.053,0.25,2.9,26,14,0.53,"IC50, neutralizing activity (MTT assay) [21]: 0.02; IC50, neutralizing activity (MTT assay) [22]: 0.01; IC50, neutralizing activity (MTT assay) [23]: 0.59; IC50, neutralizing activity (MTT assay) [24]: > 50; IC50, neutralizing activity (MTT assay) [25]: 0.32; IC50, neutralizing activity (MTT assay) [26]: 24; IC50, neutralizing activity (MTT assay) [27]: > 50; IC50, neutralizing activity (MTT assay) [28]: > 50; IC50, neutralizing activity (MTT assay) [29]: > 50; binding result (V3 peptide NNT20): binds"
"0.5 δ(3D6) (antibody, IgG1, V domains shown, also called 3D6(0.5 δ); 0.5 d(3D6)) VH: EVQLVESAAEVKKPGASVKVSCKASGYTFTSYGISWVRQAPGQGLQWMGWISAYNGNTKFAQEFKGRVTMTTDTSATTAYMELRSLRSDDTAVYYCARRNYYDSGSYYIRDGDYSMDVWGQGTLVTVSS VL: not shown",1.2 µg/mL,> 50 µg/mL,> 50 µg/mL,> 50 µg/mL,> 50 µg/mL,> 50 µg/mL,> 50 µg/mL,> 50 µg/mL,> 50 µg/mL,> 50 µg/mL,> 50 µg/mL,–,2,> 50,2.3,> 50,> 50,1.2,> 50,0.15,"IC50, neutralizing activity (MTT assay) [21]: 0.42; IC50, neutralizing activity (MTT assay) [22]: 2.4; IC50, neutralizing activity (MTT assay) [23]: 2.3; IC50, neutralizing activity (MTT assay) [24]: 0.15; IC50, neutralizing activity (MTT assay) [25]: > 50; IC50, neutralizing activity (MTT assay) [26]: 24; IC50, neutralizing activity (MTT assay) [27]: > 50; IC50, neutralizing activity (MTT assay) [28]: > 50; IC50, neutralizing activity (MTT assay) [29]: > 50; binding result [30]: binds"

# Source: patent publication US20110044995A1 (KUMAMOTO UNIVERSITY, published 2011)
